In the nanobody polyreactivity screen of Harvey et al. (2022):

test: yeast display, Sf9 membrane polyspecificity reagent, FACS + sequencing; frameworks hold sequencing errors
Outline: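 Nanobodies from a synthetic yeast display library (Saccharomyces cerevisiae BJ5465), induced 36–48 hours with galactose, were stained 1 hour at 4 °C with 10% biotinylated, detergent-solubilized Sf9 membrane reagent, enriched on streptavidin microbeads, then FACS-sorted. Anti-HA (expression) and streptavidin (reagent binding) fluorescence set low and high (top ~1%) gates. Polyreactivity labels come from the gate of origin. Genes were colony-PCR amplified, MiSeq 2 × 250 sequenced and filtered by CDR length.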

| Sequence | polyreactivity (PSR sort gate) |
| --- | --- |
| QVQLVESGGGLVQAGGSLRLSCAASGSTFISNTIGWYRQAPGKERELVAAISSGGDTSYADSVKGRFTISRDNAKNTVYLQMNILKPEDTAVYYCNVDTSATSYSSEYDYWGQGTQVTVSS | low polyreactivity |
| QVQLVESGGGLVQAGGSLRLSCAASGSTFISYAMGWYRPAPGKERELVAAISRNGGSTDYADSVKGRFTISRDNAKNSVYLQMNSLKPEHTAVYYCAAEYDTWWGGYDYWGQGTQVTVSS | high polyreactivity |
| QVQLVESGGGLVQAGGSLRLSCAASGSTFITNAMGWYRQAPGKERELVAAISSSGGSTYYADSVKGRFTISRDNAKNTVYLQMNSLKPEDTAVYYCNAVPYVPRFDYWGQGTQVTVSS | low polyreactivity |
| QVQLVESGGGLVQAGGSLRLSCAASGSTFITNIMGWYRQAPGKERELVAAISYIDGTTYYADSVKGRFTISRDNAKNTVYLQMNSLKPEDTAVYYCAAYPYLYPLRFEEYDHWGQGTQVTVSS | low polyreactivity |
| QVQLVESGGGLVQAGGSLRLSCAASGSTFITNSMGWYRQAPGKERELVAAITYSTGGTYYADSVKGRFTISRDNAKNTVYLQMNSLKPEDTAVYYCAALLYFFLYDYWGQGTQVSVSS | low polyreactivity |
| QVQLVESGGGLVQAGGSLRLSCAASGSTFITYAMGWSRQAPGKERELVAAISDSGGDTYYADSVKGRFTISRDYAKNTVYLQMISLNPEDTAVFYCAAEDDRYVYGDMNYWGQGTQVTVSS | low polyreactivity |
| QVQLVESGGGLVQAGGSLRLSCAASGSTFITYAMGWYRQAPGKERELVAAIRWSGGGTYYADSVKGRFTISRDTAKNTVYLQMNSLKPEDTAVYYCAADHFNYTTGRDYWGQGTQVTVSS | low polyreactivity |
| QVQLVESGGGLVQAGGSLRLSCAASGSTFIVYGMGWYRQAPGKEREFVAAITTRSGSTYYADSVKGRFTISRDNAKNTVYLQMNSLKPEDTAVYYCAAVPGTPRHDYWGQGTQVTVSS | high polyreactivity |
| QVQLVESGGGLVQAGGSLRLSCAASGSTFIYYAMGWYRQAPGKERELVAAISGSGASTYYADSVKGRFTISRDNAKNTVYLQMNSLKPEDTAVYYCAARSYGITDYGMYSWGQGTQVTVSS | high polyreactivity |
| QVQLVESGGGLVQAGGSLRLSCAASGSTFIYYAMGWYRQAPGKERELVAAISKRGGNTYYADSVKGRFTISRDNAKNTVYLQMNSLKPEDTAVYYCAARVYGTSRRYYSWGQGTQVTVSS | high polyreactivity |
| QVQLVESGGGLVQAGGSLRLSCAASGSTFIYYARGWYRQAPGKERELVASISRSGGSPYYADSVKGRFTISRDNAKNTVYLQMNSLKPEATAVYDCARAYRSSFNYWGQGTQVTVSS | high polyreactivity |
| QVQLVESGGGLVQAGGSLRLSCAASGSTFKDNAMGWYIQAPGKERELVASITGRGGSTYYADSVKGRFTISRDNAKNTVYLHMNSLKPEDTAVYYCAARAYYGVYKSPYDYWGQGTQVTVSS | high polyreactivity |
| QVQLVESGGGLVQAGGSLRLSCAASGSTFKFYAMGWYRQAPGKERELVAAISGSSGSTYYADSVKGRFTISRDNAKNTVYLQMNSLKPEDTAVYYCNTQYSRYYTRYSAYDYWGQGTQVTVSS | low polyreactivity |
| QVQLVESGGGLVQAGGSLRLSCAASGSTFKHYAMGWYRQAPGKERELVAAISSGGSTKYADSVKGRFTISRDNAKNTVYLQMNSLKPEDTAVYYCAARSFFKMYYWGQGTQVTVSS | low polyreactivity |
| QVQLVESGGGLVQAGGSLRLSCAASGSTFKIYAMAWYRQAPGKERELVAAITGSGGSTYYADSVKGRFTISRDNAKNTVYLQMNSLKPEDTAVYYCAVDVYYYVATEFYEYDYWGQGTQVTVSS | high polyreactivity |
| QVQLVESGGGLVQAGGSLRLSCAASGSTFKIYAMGWYRQAPGKERELVAAITRSGGSTYYADSVKGRFTISRDNAKNTVYLQMNSLKPEDTAVYYCAASRFTSYGIDYDYWGQGTQVTVSS | high polyreactivity |
| QVQLVESGGGLVQAGGSLRLSCAASGSTFKPYAMGWYRQAPGKERELVAAITWTGGSTYYADSVKGRFTISRDNAKNTVYLEMNSLKPDDTAVYYCNAYLRWYITLLRYLAGGDYWGQGTQVTVSS | high polyreactivity |
| QVQLVESGGGLVQAGGSLRLSCAASGSTFKPYTMGWYRQAPGKERELVAGISSVDSTDYADSVKGRFTISRDNAKNTVYLQMNSLKPEDTAVYYCNKRKWPTFTYAMNYWGQGTQVSVSS | low polyreactivity |
| QVQLVESGGGLVQAGGSLRLSCAASGSTFKQYAMGLYRQAPGTERELVAVITWRGGRTYYADSVKGRFTISRDYAKNTVYLQMNSLKPEDTAVYYCAADYFSFIPGYDYWGQGTQVTVSS | high polyreactivity |
| QVQLVESGGGLVQAGGSLRLSCAASGSTFKQYAMGWYRQAPGKERELVAAISRSGSRTYYADSVKGRFTISRDNAKNTVYLQMNSLIPEDTAVYYCAAERRSTAGWLYDYWGQGTQVTVSS | high polyreactivity |
| QVQLVESGGGLVQAGGSLRLSCAASGSTFKRNAMGWYRQAPGIERELVAAISYSGGSTYYADSMKGRFTISRDNAKNTVYLQMNSLKPEDTAVYYCWGPGTQVTVSS | low polyreactivity |

| Sequence | polyreactivity (PSR sort gate) |
| --- | --- |
| QVQLVESGGGLVQAGGSLRLSCAASGSTFKRYAMGWYRQAPGKEREFVAGISSRGSRTYYADSVKGRFTISRDNAKNTVYLQMNSLKPEDTAGYYCAVSGNHVSPPYGYWGQGTQVTVSS | high polyreactivity |
| QVQLVESGGGLVQAGGSLRLSCAASGSTFKRYAMGWYRQPPGKERELVASISSGGSTNYADSVKGRFTISRDNAKNSVYLQMNSLKPEDTAVYYCAAGYHVSTRGLIGHFDYWGQGTQVTVSS | high polyreactivity |
| QVQLVESGGGLVQAGGSLRLSCAASGSTFKRYVMGWYRQAPGKERELVAAISSRGGSTYYADSVKGRFTISRDNAKNTVYLQMNSLKPEDTAVYYCASANVRAEDYWGQGTQVTVSS | high polyreactivity |
| QVQLVESGGGLVQAGGSLRLSCAASGSTFKVNDMGWYRQAPGKERELVAAIDKSGGTTYYADSVKGRFTISRDNAKNTVYLQMNSLKPEDTAVYYCAADVIYEMDYWGQGTQVTVSS | low polyreactivity |
| QVQLVESGGGLVQAGGSLRLSCAASGSTFKWTAMGWYRPAPGKERELVAAITGSGTGTYYADSVKGRFTISRDNAKNTVYLQMNSLKPEDTAVYYCAAYVYGYKYYYWGQGTQVTVSS | high polyreactivity |
| QVQLVESGGGLVQAGGSLRLSCAASGSTFKWYAMGWYRQAPGKERELVAAITRGGSTSYADSVKGRFTISLDNAKNTVYLQMNSLKPEDTAVYYCAADYHYTKSMYYWGQGTQVTVSS | low polyreactivity |
| QVQLVESGGGLVQAGGSLRLSCAASGSTFKYNTMGWYRQAPGKESELVARISWSGTRTYYADSVKGRFTISRYNAKNTVYLQMNSLKPEDTAVYYCAKVSYFWSPYGYDSCGQGTQVTVSS | high polyreactivity |
| QVQLVESGGGLVQAGGSLRLSCAASGSTFKYYAMGWYRQAPGKEREFVAAITANGGRTYYADSVKGRFTISRDNAKNTVYLQMNSLKPEDTAVYYCAARTWYYYVYGYESWGQGTQVTVSS | high polyreactivity |
| QVQLVESGGGLVQAGGSLRLSCAASGSTFKYYAMGWYRQAPGKEREFVASINWSGVSTYYADSVKGRFTISRDNAKNTVYLQMNSLKPEDTAVYYCAARVRGKYDYWGQGTQVTVSS | high polyreactivity |
| QVQLVESGGGLVQAGGSLRLSCAASGSTFKYYAMGWYRQAPGKERELVASITRTGSSTYYADSVKGRFTISRDNAKNTVYLQMNSRKPEDTAVYYCNTGPHSVWWHYGYDYWGQGTQVTVSS | high polyreactivity |
| QVQLVESGGGLVQAGGSLRLSCAASGSTFLANTMGWYRQAPGKEREFVAAITRRGGSTYYADSVKGRFTISRDNAKNTVYLQMNSLKPEDTAVYYCNAEWDFQYPYDYWGQGTQVTVSS | low polyreactivity |
| QVQLVESGGGLVQAGGSLRLSCAASGSTFLDNAMGWYRQAPGKERELVASITSSGGNTYYADSVKGRFTISRDNAKNTVYLQLNSLTPEDTAVYYCAADAASYWRYNSANYDYDYWGQGTQVTVSS | low polyreactivity |
| QVQLVESGGGLVQAGGSLRLSCAASGSTFLGNAMGWYRQAPGKERELVAGITSGGTTNFADSVKGRFTISRDNAKNTVYLQMNSLKPEDTAVYYCNADVWIGQRLDPGYDFDYWGQGTQVTVSS | low polyreactivity |
| QVQLVESGGGLVQAGGSLRLSCAASGSTFLGNAMGWYRQAPGKERELVATITGSSGSTYYADSVKGRFTISRDNAKNTVYLQMNSLKPEDTAVYYCAAQRRVVGRHGLSLIRYDYWGQGTQVTVSS | low polyreactivity |
| QVQLVESGGGLVQAGGSLRLSCAASGSTFLGNVMGWYRQAPGKERELVAAISRGGSRTYYADSVKGRFTISRDNAKNTVYLQMNSLKPEDTAVYYCAAEPYAASRSGEFNYWGQGTQVTVSS | low polyreactivity |
| QVQLVESGGGLVQAGGSLRLSCAASGSTFLGNVMGWYRQAPGKERELVAAITSTGGNTYYADSVKGRFTISRDNAKNTVYLQMNSLKPEDTAVYYCAKKYVWTHNYWGQGTQVTVSS | low polyreactivity |
| QVQLVESGGGLVQAGGSLRLSCAASGSTFLGYDMGWYRQAPGKERELVAAISIGGSTYYADSVKGRFTISRDNAKNTVYLQMNSLKPEDTAVYYCARVTWGHQVIYGLSDYDSWGQGTQVTVSS | low polyreactivity |
| QVQLVESGGGLVQAGGSLRLSCAASGSTFLHSAMGWYRQAPGKEREFTYYADSVKGRFTISRDNAKNTVYLQMHSLKPEDTAGYYCNAGPYWSPYGDDVGYWGQGTQVTVSS | low polyreactivity |
| QVQLVESGGGLVQAGGSLRLSCAASGSTFLINAMGWYRQAPGKERELVAAISRDGSTNYADSVKGRFTISRDNAKNTVYLQMNSLKPEDTAVYYCAAVQGISVGRQPGYDYDYWGQGTQVTVSS | low polyreactivity |
| QVQLVESGGGLVQAGGSLRLSCAASGSTFLLYAMGWYRPAPGKERELVATISWGGDGTYYADSVKGRFTISRDNAKNTVYLQMNSLKPEDTAVYYCAAESYLVQFYFLYYYWGQGTQVTVSS | low polyreactivity |
